# How the values were obtained:
# [1] = test system: GPC3 low-expressing hepatoma xenograft model Huh-7; details: 168h; 500 kBq/kg IV, 0,75 mg/kg total protein
# Protocol: Female RJ: NRMI-Foxn1nu/nu mice were inoculated with 2 × 10^6 Huh-7 cells on the right flank. Animals were pre-treated with 200 µg/mouse unspecific IgG2a antibody 24 h prior to hot dosing.
# [2] = test system: Huh-7 hepatoma expressing GPC3; test: In vivo efficacy in Huh-7 xenograft; set-up: species or system Mice
# From the text: • Figure 1. […] Size-exclusion UV chromatogram of Codrituzumab-macropa. • Figure 9. […] Size-exclusion UV chromatogram of Labetuzumab-macropa. • Figure 18. […] Internalization of Labetuzumab. […] Size-exclusion UV chromatogram of Sacituzumab-macropa. • Figure 25. […] Size-exclusion UV chromatogram of Indusatumab-macropa. • Figure 30. […] Size-exclusion UV chromatogram of Telisotuzumab-macropa. • Figure 36.
# [3] = test system: HepG2 and Hep3B2.1-7 cells; details: 2 MBq/mg, 5 kBq/ml; 6 days; vs radiolabeled isotype control
# Protocol: Cells were seeded at an appropriate cell density in relevant cell media. One day after seeding, the radiolabeled compounds at the specific activity of 2-20 kBq/µg and radioactive concentration of 50-100 kBq/ml were titrated in parallel with a radiolabeled isotype control. Cells were incubated for 5-6 days. Cell viability was determined by cell counting using Hoechst and PI staining and analyzed on Operetta CLS High Content Analysis System (Perkin Elmer) or by ATP measurements using CellTiterGlo (Promega).
# HepG2 and Hep3B2.1-7 cells were seeded at an appropriate cell density in the cell media MEM + 10% FBS. HepG2 cells have higher GPC3 expression on the cell surface than Hep3B2.1-7 cells. One day after seeding the compounds at the specific activity of 2 MBq/mg and radioactive concentration of 5 kBq/ml were titrated in parallel with a radiolabeled isotype control. Cells were incubated for 6 days and subsequentially cell viability was determined using Hoechst and PI staining and analyzed on Operetta CLS High Content Analysis System (Perkin Elmer).
# [4] = target: T1, CEACAM5 (Homo sapiens, UniProt P06731); test: Immunoreactive fraction (IRF), binding to CEACAM5-coated beads; details: 2 kBq/µg
# T1 sequence (P06731 35-702): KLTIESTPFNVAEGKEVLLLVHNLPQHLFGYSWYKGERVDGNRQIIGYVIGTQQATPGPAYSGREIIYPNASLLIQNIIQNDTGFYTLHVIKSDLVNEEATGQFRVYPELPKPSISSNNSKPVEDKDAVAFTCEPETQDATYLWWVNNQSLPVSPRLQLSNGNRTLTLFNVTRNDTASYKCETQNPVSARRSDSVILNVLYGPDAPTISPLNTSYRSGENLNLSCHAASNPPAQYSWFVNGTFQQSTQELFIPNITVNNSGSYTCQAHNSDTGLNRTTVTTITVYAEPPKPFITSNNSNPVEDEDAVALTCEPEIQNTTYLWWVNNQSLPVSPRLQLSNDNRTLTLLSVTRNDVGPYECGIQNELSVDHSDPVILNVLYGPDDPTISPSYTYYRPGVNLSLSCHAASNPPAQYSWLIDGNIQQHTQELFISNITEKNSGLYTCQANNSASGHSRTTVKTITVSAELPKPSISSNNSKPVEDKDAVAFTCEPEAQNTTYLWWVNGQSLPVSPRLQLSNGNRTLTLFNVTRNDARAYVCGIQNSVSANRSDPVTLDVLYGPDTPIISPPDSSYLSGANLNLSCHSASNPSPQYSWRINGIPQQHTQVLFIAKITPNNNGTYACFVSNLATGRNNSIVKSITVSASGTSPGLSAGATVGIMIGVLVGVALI
# Protocol: Shortly after completion of the radiolabeling, the binding was assessed by measuring the fraction of radiolabeled antibody-chelator conjugate bound to relevant antigen coated magnetic beads (Thermo Fisher Scientific). In short, beads were placed in 2 mL Eppendorf tubes in 90 µL buffer (PBS/0.1% Tween 20/1% BSA). The radiolabeled compounds were diluted to 5 Bq/µL in buffer and 50 Bq were added to each bead-containing tube. The binding lasted for 60 min while shaking at 750 rpm at room temperature. After completion of the binding step, magnet (DynaMag-2) was used to separate the beads from […] supernatant. The radio activities in the supernatant and in the beads of each sample were measured using a high purity Germanium detector (Ortec). […] Total binding was defined as [(activity in beads […])/ (total activity)] × 100.
# Shortly after completion of the radiolabeling, the binding of each sample to CEACAM5-coated M270-carboxy Dynabeads was determined.
# [5] = test system: C4-2, JIMT-1, T-47D, NCI-N87 and Calu-3; details: 2 to 40 kBq/µg; 6 days; vs isotype control
# Protocol: In vitro cytotoxicity of Ac-225-ACC was determined in cell lines expressing different levels of relevant target receptors. Cells were seeded at an appropriate cell density in relevant cell media. One day after seeding, the radiolabeled compounds at the specific activity of 2-20 kBq/µg and radioactive concentration of 50-100 kBq/ml were titrated in parallel with a radiolabeled isotype control. Cells were incubated for 5-6 days. Cell viability was determined by cell counting using Hoechst and PI staining and analyzed on Operetta CLS High Content Analysis System (Perkin Elmer) or by ATP measurements using CellTiterGlo (Promega).
# C4-2, JIMT-1, T-47D, NCI-N87 and Calu-3 were seeded at an appropriate cell density in the following cell media respectively: RPMI + 10% FBS + 1x MEM-NEAA + 1x HEPES + 1x Na Pyruvate; DMEM + 10% FBS; RPMI + 10% FBS + 10 µg/ml insulin; RPMI + 10% FBS; RPMI + 10% FBS. […] Cells were treated for 6 days and subsequentially cell viability was determined using CellTiterGlo (Promega).
# [6] = test system: LK-2 lung cancer model; test: In vivo antitumor efficacy in LK-2 model; set-up: species or system mice
# From the text: Female BALB/c nude mice were inoculated subcutaneously with 1×10^6 LK-2 cells. When tumors reached an average size of ~190mm^3, animals were randomized into treatment groups (n=12 per group) and treatment was started.
# (**, P=0.0024. ****, […]) (Figure 28).
# [7] = target: T2, human glypican-3 (Homo sapiens, UniProt P51654); test: ELISA, binding to recombinant human glypican-3; details: compared to unconjugated Codrituzumab
# Protocol: The relevant antigen was immobilized on ELISA plate by absorption. The plate was washed (PBS with 0.1% Tween 20) and incubated with blocking buffer (PBS + 3% BSA) for 2 h ± 1 h to reduce unspecific binding. Relevant antibodies and ACCs diluted in assay buffer (PBS with 0.05% Tween 20 + 1.5% BSA). The blocking buffer was discarded, and the antibodies and ACCs and controls were applied in triplicates to the plate according to a plate set-up defined in each protocol. After incubation for 1 h ± 30 min at RT, the plate was washed. A horse radish peroxidase (HRP)-conjugated secondary antibody binding specifically to the primary mAb (anti-human IgG-HRP) was added to the plate. After incubation for 1 hour ± 30 min at RT, the plate was washed. A chromogenic substrate (2,2'-azino-bis (3-ethylbenzothiazoline-6-sulphonic acid) (ABTS)), for HRP leading to the formation of a green color was added to the plate and used for detection. The absorbance of the colored reaction product was measured with an absorbance plate reader, e.g. EnVision 2103 Multilabel Reader from Perkin Elmer, or iMark Microplate Absorbance Reader from Bio-Rad.
# Absorbance against the log of the antibody concentration was plotted on the GraphPad Prism software. […]
# [8] = target: T2, human glypican-3; test: Flow cytometry, cell surface binding on Hep3B2 cells; set-up: Hep3B2 cells expressing human glypican-3; endogenous in cells; host or cells: Hep3B2; details: compared to unconjugated Codrituzumab
# Protocol: (§1) The in vitro binding properties of antibody-chelator conjugates were assessed in various relevant cell lines and compared to their corresponding unconjugated antibody. Briefly, samples were diluted in buffer (PBS/3% FBS) and added to relevant cell lines. After completion of the binding step (60 min at 4°C), the cells were washed and incubated with secondary antibody conjugated with phycoerythrin to detect antibodies containing a human IgG Fc region. After 60 min at 4°C, the cells were washed, and fluorescence on the cells was determined by flow cytometry using Guava EasyCyte 8HT (Luminex).
# Cell surface binding of Codrituzumab-macropa was compared to unconjugated Codrituzumab and was investigated by flow cytometry using Hep3B2 cells expressing human glypican-3 (Figure 11).
# [9] = target: T3, human FolRa (Homo sapiens, UniProt P15328); test: Flow cytometry, cell surface binding on OUMS-23 and T-47D cells; details: compared to the unconjugated antibody
# T3 construct: OUMS-23 and T-47D cells expressing human FolRa; endogenous in cells; host or cells: OUMS-23, T-47D
# T3 sequence (P15328 25-257): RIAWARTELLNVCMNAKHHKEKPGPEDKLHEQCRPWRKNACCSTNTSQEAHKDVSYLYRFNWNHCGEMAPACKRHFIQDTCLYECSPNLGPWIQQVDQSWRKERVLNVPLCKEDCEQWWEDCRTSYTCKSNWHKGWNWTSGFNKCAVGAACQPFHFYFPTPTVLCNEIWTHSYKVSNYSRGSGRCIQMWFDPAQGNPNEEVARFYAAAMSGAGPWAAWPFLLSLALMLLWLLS
# Protocol: as §1
# Cell surface binding of Farletuzumab-macropa and Farletuzumab-DOTA was compared to unconjugated Farletuzumab and investigated by flow cytometry using OUMS-23 and T-47D cells expressing human FolRa (Figure 43).
# Cell surface binding of Mirvetuximab-macropa and Mirvetuximab-DOTA was compared to unconjugated Mirvetuximab and investigated by flow cytometry using OUMS-23 and T-47D cells expressing human FolRa (Figure 47).
# [10] = target: GUCY2C (Homo sapiens, UniProt P25092); test: Flow cytometry, cell surface binding on CHO-GUCY2C cells; set-up: expressed in transfected cells; host or cells: CHO; details: compared to unconjugated Indusatumab
# Protocol: as §1
# Cell surface binding of Indusatumab-macropa was compared to unconjugated Indusatumab and investigated by flow cytometry using CHO-GUCY2C cells expressing human GUCY2C (Figure 31).
# [11] = target: T1, CEACAM5; test: Flow cytometry, cell surface binding on MKN-45 and HT-55 cells; set-up: MKN-45 and HT-55 cells expressing human CEACAM5; endogenous in cells; host or cells: MKN-45, HT-55; details: compared to unconjugated Labetuzumab
# Protocol: as §1
# Cell surface binding of Labetuzumab-macropa was compared to unconjugated Labetuzumab and investigated by flow cytometry using MKN-45 and HT-55 cells expressing human CEACAM5 (Figure 19).
# [12] = Chelation of bismuth-213 by iTLC after Ac-225 labelling; format: physicochemical; details: measured immediately and on Day 1 and Day 2 at room temperature
# Protocol: In brief, an iTLC paper impregnated with a silica gel plate was cut to obtain 11 cm × 1 cm strips. Application point (1 cm), cut point (4 cm) and end of run point (10 cm) was marked and 2 µl of TAC was applied on to iTLC strips. The strips were developed in 3 mL mobile phase (0.1 M Citrate in 0.9%(v/v) NaCl pH 5.5) in LSC vials. […] When the liquid front had reached the marked end point, the strips were removed from the vials and placed on an aluminum foil to dry. The strips were cut in two at 4 cm: the shorter "application" half (A) and the longer "front" half (F). Each part was carefully folded and placed at the bottom of scintillation vials. […] The radiochemical purity (% RCP) of the samples (defined as [(radioactivity of application section)/(total radioactivity on strip)] × 100) was calculated. Table 2: Radiochemical purity (% RCP) of samples included in this invention.
# Pelgi-macropa labeling was performed for 60 min at room temperature the two DOTA compounds were labeled at 60°C for 60 min. The percentage chelation of Bi-213 was determined using iTLC and measured on the Germanium Detector using the specific energy of Bi-213. After initial radiolabelling, compounds were measured immediately and on Day 1 and Day 2 after incubation at room temperature. […]
# [13] = target: T4, human TROP2 (Homo sapiens, UniProt P09758); test: Flow cytometry, cell surface binding on JIMT-1, MCF-7, T-47D and ZR-75-1 cells; details: compared to unconjugated Sacituzumab
# T4 construct: JIMT-1, MCF-7, T-47D and ZR-75-1 cells expressing human TROP2; endogenous in cells; host or cells: JIMT-1, MCF-7, T-47D, ZR-75-1
# T4 sequence (P09758 27-323): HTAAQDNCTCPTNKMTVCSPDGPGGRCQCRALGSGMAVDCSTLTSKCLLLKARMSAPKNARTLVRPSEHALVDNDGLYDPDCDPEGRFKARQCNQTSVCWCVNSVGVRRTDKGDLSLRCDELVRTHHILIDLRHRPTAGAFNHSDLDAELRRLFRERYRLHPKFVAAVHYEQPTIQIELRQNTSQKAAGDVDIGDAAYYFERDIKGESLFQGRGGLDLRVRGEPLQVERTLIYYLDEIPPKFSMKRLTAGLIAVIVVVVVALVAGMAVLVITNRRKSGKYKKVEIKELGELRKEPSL
# Protocol: as §1
substance,measurement,setting,value
Ac-225-macropa-Codrituzumab: Ac-225 macropa complex bound to the anti-GPC3 monoclonal antibody Codrituzumab,tumor uptake,[1],significantly higher tumor uptake at 168h compared to Ac-225-macropa-isotype-control
same,anti-tumor activity,"[2]; 500 kBq/kg single dose IV, repeat dose 250 kBq/kg on day 25, compared to isotype control",significantly higher anti-tumor activity
same,body weight loss,[2]; during the course of the study,No body weight loss
same,cytotoxicity,[3],strong and specific cytotoxicity
Ac-225-macropa-Labetuzumab,IRF,[4]; 33 µg beads,43%
same,IRF,[4]; 100 µg beads,88%
same,IRF,[4]; 333 µg beads,97%
Ac-225-macropa-Sacituzumab: Ac-225 macropa complex bound to the anti-TROP2 monoclonal antibody Sacituzumab,cytotoxicity,[5],strong and specific cytotoxicity
same,tumor growth inhibition,"[6]; 100 or 200 kBq/kg, i.v., single dose day 0",strong tumor growth inhibition at both doses tested
same,Antitumor activity compared to Trodelvy,"[6]; Trodelvy 20 mg/kg i.v. day 0,7,14",significantly improved as compared to Trodelvy
Codrituzumab-DOTA,EC50,[7],higher EC50 than unconjugated Codrituzumab
Codrituzumab-macropa,EC50,[8],comparable EC50 as unconjugated Codrituzumab
Farletuzumab-DOTA [reference compound],EC50,[9],higher EC50 than unconjugated Farletuzumab in both cell lines
Farletuzumab-macropa,EC50,[9],comparable EC50 in both cell lines as unconjugated Farletuzumab
Indusatumab-macropa,EC50,[10],comparable EC50 as unconjugated Indusatumab
Labetuzumab-macropa,EC50,[11],comparable EC50 as unconjugated Labetuzumab
Mirvetuximab-DOTA [reference compound],EC50,[9],higher EC50 than unconjugated Mirvetuximab in OUMS-23 cells
Mirvetuximab-macropa,EC50,[9],comparable EC50 in both cell lines as unconjugated Mirvetuximab
Pelgi-macropa: actinium-225 complexed to a macropa chelator covalently linked to the fully human PSMA-targeting antibody pelgifatamab (CAR 0.8),chelation of Bismuth-213,[12],chelated by macropa
Sacituzumab-macropa,EC50,[13],comparable EC50 as unconjugated Sacituzumab
pelgifatamab-DOTA: pelgifatamab-DOTA (CAR 12.7) labeled with Actinium-225,chelation of Bismuth-213,[12],not chelated to the same extent with DOTA
